Experiments:
huZIP12-ECD-GST [1] = biological target: T1, huZIP12-ECD-GST (human, UniProt Q504Y0 24-202); test: SPR single cycle kinetics (Biacore): mAb captured on protein A, huZIP12-ECD-GST injected at 3.12-800 nM
T1 construct: also called hZIP12-ECD-GST; human ZIP12-ECD-GST; not shown: glutathione S-transferase (GST) tag
Protocol: (§1) Single Cycle Kinetics (SCK) involves first capturing the mAb onto the protein A sensor surface and then sequentially injecting a series of concentrations of huZIP12-ECD-GST over the surface starting at the lowest concentration and ending with the highest concentration. The final concentration is followed by a dissociation phase where buffer only is passed across the surface followed by regeneration, where the remaining bound huZIP12-ECD-GST is removed from the surface by injection of a 10 mM Glycine pH 1.5 and 50 mM NaOH solution. The SCK is repeated for each monoclonal antibody providing duplicate data and the kinetics of each interaction is evaluated by the Biacore software.
Referring to FIG. 6, there are shown the kinetic parameters obtained for all antibody variants when screened with the 3.12 nM to 800 nM huZIP12-ECD-GST. […] Affinity.

huZIP12-ECD-GST [2] = biological target: T1, huZIP12-ECD-GST; test: SPR single cycle kinetics (Biacore): mAb captured on protein A, huZIP12-ECD-GST injected at 2.34-600 nM, extended dissociation
Protocol: as §1
A selection of the higher affinity antibody variants were re-tested at a lower concentration series with an extended dissociation time with the objective of obtaining a better assessment of the binding kinetics. Referring now to FIG. 7, there are shown the data for the monoclonal antibodies that were re-tested to optimise the binding kinetic data. Once again, three antibody variants, H3_W99H_L1, H3_W99HL2 and H3_W99H_VL-par, all appear to have a higher affinity than the parent antibody. The on-rate (ka), off-rate (kd) and overall affinity measurement (KD) are all improved compared to the 51B12 VH_VL_par parent antibody.

T1 sequence (Q504Y0 24-202): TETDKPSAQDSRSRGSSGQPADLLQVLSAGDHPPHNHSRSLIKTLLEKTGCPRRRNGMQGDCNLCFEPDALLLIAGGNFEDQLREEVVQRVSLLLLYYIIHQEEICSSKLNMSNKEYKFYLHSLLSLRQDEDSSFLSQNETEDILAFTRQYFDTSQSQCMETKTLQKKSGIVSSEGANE

Kd (huZIP12-ECD-GST [1]) | koff (huZIP12-ECD-GST [1]) | kon (huZIP12-ECD-GST [1]) | Kd (huZIP12-ECD-GST [2]) | koff (huZIP12-ECD-GST [2]) | kon (huZIP12-ECD-GST [2]) | Binder
0.963 nM | 2.83e-05 s⁻¹ | 29300 M⁻¹ s⁻¹ |  |  |  | 51B12_VH_L1 (antibody, V domains shown, Fc null human IgG1 / human kappa) VH: QVQLVESGGGVVQPGRSLRLSCAASGFTFSDYGMHWVRQAPGKGLEWVAYISSGGTTIYYADTVKGRFTISRDNSKNTLYLQMNSLRAEDTAVYYCARWTNLYAMDYWGQGTTVTVSS VL: DIVLTQSPDSLAVSLGERATINCRASKSVSTQGYSYMHWYQQKPGQPPKFLIYLASNLESGVPDRFSGSGSGTDFTLTISSLQAEDVAVYYCQHSREVPYTFGGGTKVEIKR
1.13 nM | 2.62e-05 s⁻¹ | 23200 M⁻¹ s⁻¹ |  |  |  | H2_K65P_L2 (antibody, V domains shown, Fc null human IgG1 / human kappa) VH: QVQLVESGGGVVQPGRSLRLSCAASGFTFSDYGMHWVRQAPGKGLEWVAYISSGGTTIYYADTVPGRFTISRDNSKNTLYLQMNSLRAEDTAVYYCARWTNLYAMDYWGQGTTVTVSS VL: DIVLTQSPDSLAVSLGERATINCRASKSVSTSGYSYMHWYQQKPGQPPKFLIYLASNKESGVPDRFSGSGSGTDFTLTISSLQAEDVAVYYCQHSREVPYTFGGGTKVEIKR
1.07 nM | 3.08e-05 s⁻¹ | 28800 M⁻¹ s⁻¹ |  |  |  | H2_K65P_L1 (antibody, V domains shown, Fc null human IgG1 / human kappa) VH: QVQLVESGGGVVQPGRSLRLSCAASGFTFSDYGMHWVRQAPGKGLEWVAYISSGGTTIYYADTVPGRFTISRDNSKNTLYLQMNSLRAEDTAVYYCARWTNLYAMDYWGQGTTVTVSS VL: DIVLTQSPDSLAVSLGERATINCRASKSVSTQGYSYMHWYQQKPGQPPKFLIYLASNLESGVPDRFSGSGSGTDFTLTISSLQAEDVAVYYCQHSREVPYTFGGGTKVEIKR
1.63 nM | 4.03e-05 s⁻¹ | 24700 M⁻¹ s⁻¹ |  |  |  | H3_M105P_VL-par (antibody, V domains shown, Fc null human IgG1 / human kappa) VH: QVQLVESGGGVVQPGRSLRLSCAASGFTFSDYGMHWVRQAPGKGLEWVAYISSGGTTIYYADTVKGRFTISRDNSKNTLYLQMNSLRAEDTAVYYCARWTNLYAPDYWGQGTTVTVSS VL: DIVLTQSPDSLAVSLGERATINCRASKSVSTSGYSYMHWYQQKPGQPPKFLIYLASNLESGVPDRFSGSGSGTDFTLTISSLQAEDVAVYYCQHSREVPYTFGGGTKVEIKR
1.55 nM | 4.35e-05 s⁻¹ | 28100 M⁻¹ s⁻¹ |  |  |  | H3_M105P_L1 (antibody, V domains shown, Fc null human IgG1 / human kappa) VH: QVQLVESGGGVVQPGRSLRLSCAASGFTFSDYGMHWVRQAPGKGLEWVAYISSGGTTIYYADTVKGRFTISRDNSKNTLYLQMNSLRAEDTAVYYCARWTNLYAPDYWGQGTTVTVSS VL: DIVLTQSPDSLAVSLGERATINCRASKSVSTQGYSYMHWYQQKPGQPPKFLIYLASNLESGVPDRFSGSGSGTDFTLTISSLQAEDVAVYYCQHSREVPYTFGGGTKVEIKR
1.08 nM | 3.72e-05 s⁻¹ | 34400 M⁻¹ s⁻¹ | 0.83 nM | 2.78e-05 s⁻¹ | 33600 M⁻¹ s⁻¹ | H2_G66Q_VL-par (antibody, V domains shown, Fc null human IgG1 / human kappa) VH: QVQLVESGGGVVQPGRSLRLSCAASGFTFSDYGMHWVRQAPGKGLEWVAYISSGGTTIYYADTVKQRFTISRDNSKNTLYLQMNSLRAEDTAVYYCARWTNLYAMDYWGQGTTVTVSS VL: DIVLTQSPDSLAVSLGERATINCRASKSVSTSGYSYMHWYQQKPGQPPKFLIYLASNLESGVPDRFSGSGSGTDFTLTISSLQAEDVAVYYCQHSREVPYTFGGGTKVEIKR
1.12 nM | 2.86e-05 s⁻¹ | 25600 M⁻¹ s⁻¹ |  |  |  | 51B12_VH_L2 (antibody, V domains shown, Fc null human IgG1 / human kappa) VH: QVQLVESGGGVVQPGRSLRLSCAASGFTFSDYGMHWVRQAPGKGLEWVAYISSGGTTIYYADTVKGRFTISRDNSKNTLYLQMNSLRAEDTAVYYCARWTNLYAMDYWGQGTTVTVSS VL: DIVLTQSPDSLAVSLGERATINCRASKSVSTSGYSYMHWYQQKPGQPPKFLIYLASNKESGVPDRFSGSGSGTDFTLTISSLQAEDVAVYYCQHSREVPYTFGGGTKVEIKR
1.61 nM | 3.74e-05 s⁻¹ | 23200 M⁻¹ s⁻¹ |  |  |  | H2_T56H_L2 (antibody, V domains shown, Fc null human IgG1 / human kappa) VH: QVQLVESGGGVVQPGRSLRLSCAASGFTFSDYGMHWVRQAPGKGLEWVAYISSGGHTIYYADTVKGRFTISRDNSKNTLYLQMNSLRAEDTAVYYCARWTNLYAMDYWGQGTTVTVSS VL: DIVLTQSPDSLAVSLGERATINCRASKSVSTSGYSYMHWYQQKPGQPPKFLIYLASNKESGVPDRFSGSGSGTDFTLTISSLQAEDVAVYYCQHSREVPYTFGGGTKVEIKR
1.15 nM | 3.06e-05 s⁻¹ | 26700 M⁻¹ s⁻¹ |  |  |  | H2_T63Y_L2 (antibody, V domains shown, Fc null human IgG1 / human kappa) VH: QVQLVESGGGVVQPGRSLRLSCAASGFTFSDYGMHWVRQAPGKGLEWVAYISSGGTTIYYADYVKGRFTISRDNSKNTLYLQMNSLRAEDTAVYYCARWTNLYAMDYWGQGTTVTVSS VL: DIVLTQSPDSLAVSLGERATINCRASKSVSTSGYSYMHWYQQKPGQPPKFLIYLASNKESGVPDRFSGSGSGTDFTLTISSLQAEDVAVYYCQHSREVPYTFGGGTKVEIKR
1.08 nM | 2.92e-05 s⁻¹ | 27000 M⁻¹ s⁻¹ |  |  |  | H2_K65P_VL-par (antibody, V domains shown, Fc null human IgG1 / human kappa) VH: QVQLVESGGGVVQPGRSLRLSCAASGFTFSDYGMHWVRQAPGKGLEWVAYISSGGTTIYYADTVPGRFTISRDNSKNTLYLQMNSLRAEDTAVYYCARWTNLYAMDYWGQGTTVTVSS VL: DIVLTQSPDSLAVSLGERATINCRASKSVSTSGYSYMHWYQQKPGQPPKFLIYLASNLESGVPDRFSGSGSGTDFTLTISSLQAEDVAVYYCQHSREVPYTFGGGTKVEIKR
1.29 nM | 3.38e-05 s⁻¹ | 26200 M⁻¹ s⁻¹ | 0.591 nM | 1.51e-05 s⁻¹ | 25600 M⁻¹ s⁻¹ | H2_T56H_VL-par (antibody, V domains shown, Fc null human IgG1 / human kappa) VH: QVQLVESGGGVVQPGRSLRLSCAASGFTFSDYGMHWVRQAPGKGLEWVAYISSGGHTIYYADTVKGRFTISRDNSKNTLYLQMNSLRAEDTAVYYCARWTNLYAMDYWGQGTTVTVSS VL: DIVLTQSPDSLAVSLGERATINCRASKSVSTSGYSYMHWYQQKPGQPPKFLIYLASNLESGVPDRFSGSGSGTDFTLTISSLQAEDVAVYYCQHSREVPYTFGGGTKVEIKR
1.3 nM | 3.45e-05 s⁻¹ | 26400 M⁻¹ s⁻¹ |  |  |  | H2_T56H_L1 (antibody, V domains shown, Fc null human IgG1 / human kappa) VH: QVQLVESGGGVVQPGRSLRLSCAASGFTFSDYGMHWVRQAPGKGLEWVAYISSGGHTIYYADTVKGRFTISRDNSKNTLYLQMNSLRAEDTAVYYCARWTNLYAMDYWGQGTTVTVSS VL: DIVLTQSPDSLAVSLGERATINCRASKSVSTQGYSYMHWYQQKPGQPPKFLIYLASNLESGVPDRFSGSGSGTDFTLTISSLQAEDVAVYYCQHSREVPYTFGGGTKVEIKR
1.17 nM | 3.42e-05 s⁻¹ | 29100 M⁻¹ s⁻¹ | 1.2 nM | 3.59e-05 s⁻¹ | 30000 M⁻¹ s⁻¹ | H2_G66Q_L2 (antibody, V domains shown, Fc null human IgG1 / human kappa) VH: QVQLVESGGGVVQPGRSLRLSCAASGFTFSDYGMHWVRQAPGKGLEWVAYISSGGTTIYYADTVKQRFTISRDNSKNTLYLQMNSLRAEDTAVYYCARWTNLYAMDYWGQGTTVTVSS VL: DIVLTQSPDSLAVSLGERATINCRASKSVSTSGYSYMHWYQQKPGQPPKFLIYLASNKESGVPDRFSGSGSGTDFTLTISSLQAEDVAVYYCQHSREVPYTFGGGTKVEIKR
0.968 nM | 3.34e-05 s⁻¹ | 34600 M⁻¹ s⁻¹ |  |  |  | H2_G66Q_L1 (antibody, V domains shown, Fc null human IgG1 / human kappa) VH: QVQLVESGGGVVQPGRSLRLSCAASGFTFSDYGMHWVRQAPGKGLEWVAYISSGGTTIYYADTVKQRFTISRDNSKNTLYLQMNSLRAEDTAVYYCARWTNLYAMDYWGQGTTVTVSS VL: DIVLTQSPDSLAVSLGERATINCRASKSVSTQGYSYMHWYQQKPGQPPKFLIYLASNLESGVPDRFSGSGSGTDFTLTISSLQAEDVAVYYCQHSREVPYTFGGGTKVEIKR
0.98 nM | 3.78e-05 s⁻¹ | 38600 M⁻¹ s⁻¹ |  |  |  | H2_T57H_L2 (antibody, V domains shown, Fc null human IgG1 / human kappa) VH: QVQLVESGGGVVQPGRSLRLSCAASGFTFSDYGMHWVRQAPGKGLEWVAYISSGGTHIYYADTVKGRFTISRDNSKNTLYLQMNSLRAEDTAVYYCARWTNLYAMDYWGQGTTVTVSS VL: DIVLTQSPDSLAVSLGERATINCRASKSVSTSGYSYMHWYQQKPGQPPKFLIYLASNKESGVPDRFSGSGSGTDFTLTISSLQAEDVAVYYCQHSREVPYTFGGGTKVEIKR

Binder | Kd (huZIP12-ECD-GST [1]) | koff (huZIP12-ECD-GST [1]) | kon (huZIP12-ECD-GST [1]) | Kd (huZIP12-ECD-GST [2]) | koff (huZIP12-ECD-GST [2]) | kon (huZIP12-ECD-GST [2])
H2_Y60K_L2 (antibody, V domains shown, Fc null human IgG1 / human kappa) VH: QVQLVESGGGVVQPGRSLRLSCAASGFTFSDYGMHWVRQAPGKGLEWVAYISSGGTTIYKADTVKGRFTISRDNSKNTLYLQMNSLRAEDTAVYYCARWTNLYAMDYWGQGTTVTVSS VL: DIVLTQSPDSLAVSLGERATINCRASKSVSTSGYSYMHWYQQKPGQPPKFLIYLASNKESGVPDRFSGSGSGTDFTLTISSLQAEDVAVYYCQHSREVPYTFGGGTKVEIKR | 1.11 nM | 4.04e-05 s⁻¹ | 36500 M⁻¹ s⁻¹ |  |  | 
H3_M105P_L2 (antibody, V domains shown, Fc null human IgG1 / human kappa) VH: QVQLVESGGGVVQPGRSLRLSCAASGFTFSDYGMHWVRQAPGKGLEWVAYISSGGTTIYYADTVKGRFTISRDNSKNTLYLQMNSLRAEDTAVYYCARWTNLYAPDYWGQGTTVTVSS VL: DIVLTQSPDSLAVSLGERATINCRASKSVSTSGYSYMHWYQQKPGQPPKFLIYLASNKESGVPDRFSGSGSGTDFTLTISSLQAEDVAVYYCQHSREVPYTFGGGTKVEIKR | 1.93 nM | 4.14e-05 s⁻¹ | 21500 M⁻¹ s⁻¹ |  |  | 

— patent US20260109761A1 (IP2IPO INNOVATIONS, published 2026)
